pKd: −log10 of the molar value.
Legend:
[1] = molecular target: full-length avian ANP32A (Gallus gallus) (Gallus gallus); assay: NMR titration
[2] = molecular target: LRR of ANP32A alone (not stated (human and Gallus gallus ANP32A were used)); assay: NMR titration

Row | Substance | pKd [1] | pKd [2]
1 | 627-NLS domains of PB2, E627 form (amino acids 538-759, avian H5N1 A/duck/Shantou/4610/2003) (domain or fragment) | < 2.52 | 
2 | the 627 domain (E627 or K627 not stated) (domain or fragment) |  | < 2.82

Reference: PMC7374565
